Measurements from patent US20220324939A1 (Regeneron, published 2022).
Substitutions are numbered along the chain they refer to.

B1: PN41712 (TCR, V domains shown)
V domain 1: AQTVTQSQPEMSVQEAETVTLSCTYDTSENNYYLFWYKQPPSRQMILVIRQEAYKQQNATENRFSVNFQKAAKSFSLKISDSQLGDTAMYFCALNTGNQFYFGTGTSLTVIP
V domain 2: GAVVSQHPSWVICKSGTSVKIECRSLDFQATTMFWYRQFPKQSLMLMATSNEGSKATYEQGVEKDKFLINHASLTLSTLTVTSAHPEDSSFYICSAWDGFYGYTFGSGTRLTVV
notes: stained with anti-mouse TCR constant region H57-597; full-length chains on transfected CHO cells; also called TCR No. 27
B2: PN41748 (TCR, V domains shown)
V domain 1: SQELEQSQQSLIVQEGKNLTINCTSSKTLYGLYWYKQKYGEGLIFLMMLQKGGEEKSHEKITAKLDEKKQQSSLHITASQPSHAGIYLCGADMYSGGGADGLTFGKGTHLIIQP
V domain 2: B1 V domain 2
notes: stained with anti-mouse TCR constant region H57-597; full-length chains on transfected CHO cells; also called TCR No. 29
B3: PN41703 (TCR, V domains shown)
V domain 1: DAKTTQPPSMDCAEGRAANLPCNHSTISGNEYVYWYRQIHSQGPQYIIHGLKNNETNEMASLIITEDRKSSTLILPHATLRDTAVYYCIVRPGGTYKYIFGTGTRLKVLA
V domain 2: DVKVTQSSRYLVKRTGEKVFLECVQDMDHENMFWYRQDPGLGLRLIYFSYDVKMKEKGDIPEGYSVSREKKERFSLILESASTNQTSMYLCATGGDNQPQHFGDGTRLSIL
notes: stained with anti-mouse TCR constant region H57-597; full-length chains on transfected CHO cells; also called TCR No. 26
B4: PN41805 (TCR, V domains shown)
V domain 1: AQTVTQSQPEMSVQEAETVTLSCTYDTSENNYYLFWYKQPPSRQMILVIRQEAYKQQNATENRFSVNFQKAAKSFSLKISDSQLGDTAMYFCAFGMYSGGGADGLTFGKGTHLIIQP
V domain 2: AAGVIQSPRHLIKEKRETATLKCYPIPRHDTVYWYQQGPGQDPQFLISFYEKMQSDKGSIPDRFSAQQFSDYHSELNMSSLELGDSALYFCASSPTGTGDGYTFGSGTRLTVV
notes: stained with anti-mouse TCR constant region H57-597; full-length chains on transfected CHO cells; also called TCR No. 30
B5: PN41654 (TCR, V domains shown)
V domain 1: GESVGLHLPTLSVQEGDNSIINCAYSNSASDYFIWYKQESGKGPQFIIDIRSNMDKRQGQRVTVLLNKTVKHLSLQIAATQPGDSAVYFCAEKRDNYGQNFVFGPGTRLSVLP
V domain 2: DVKVTQSSRYLVKRTGEKVFLECVQDMDHENMFWYRQDPGLGLRLIYFSYDVKMKEKGDIPEGYSVSREKKERFSLILESASTNQTSMYLCASSLYSYGYTFGSGTRLTVV
notes: stained with anti-mouse TCR constant region H57-597; full-length chains on transfected CHO cells; also called TCR No. 22
B6: PN41867 (TCR, V domains shown)
V domain 1: AQTVTQSQPEMSVQEAETVTLSCTYDTSENNYYLFWYKQPPSRQMILVIRQEAYKQQNATENRFSVNFQKAAKSFSLKISDSQLGDTAMYFCAFMKTQGGSEKLVFGKGTKLTVNP
V domain 2: AAGVIQSPRHLIKEKRETATLKCYPIPRHDTVYWYQQGPGQDPQFLISFYEKMQSDKGSIPDRFSAQQFSDYHSELNMSSLELGDSALYFCASSLVGYGYTFGSGTRLTVV
notes: stained with anti-mouse TCR constant region H57-597; full-length chains on transfected CHO cells; also called TCR No. 36
B7: PN41746 (TCR, V domains shown)
V domain 1: AQTVTQSQPEMSVQEAETVTLSCTYDTSESDYYLFWYKQPPSRQMILVIRQEAYKQQNATENRFSVNFQKAAKSFSLKISDSQLGDAAMYFCAYRSATGNQFYFGTGTSLTVIP
V domain 2: DVKVTQSSRYLVKRTGEKVFLECVQDMDHENMFWYRQDPGLGLRLIYFSYDVKMKEKGDIPEGYSVSREKKERFSLILESASTNQTSMYLCASSLWGLNTEAFFGQGTRLTVV
notes: stained with anti-mouse TCR constant region H57-597; full-length chains on transfected CHO cells; also called TCR No. 28
B8: PN41820 (TCR, V domains shown)
V domain 1: AQSVTQPGSHVSVSEGALVLLRCNYSSSVPPYLFWYVQYPNQGLQLLLKYTTGATLVKGINGFEAEFKKSETSFHLTKPSAHMSDAAEYFCAVSSGSARQLTFGSGTQLTVLP
V domain 2: B7 V domain 2 with L95H, W96D, G97R, L98W, N99D, T100Y, E101G, A102Y, F103T, Q106S
notes: stained with anti-mouse TCR constant region H57-597; full-length chains on transfected CHO cells; also called TCR No. 31
B9: PN41656 (TCR, V domains shown)
V domain 1: AQKITQTQPGMFVQEKEAVTLDCTYDTSDPSYGLFWYKQPSSGEMIFLIYQGSYDQQNATEGRYSLNFQKARKSANLVISASQLGDSAMYFCAMRDLTTSGTYKYIFGTGTRLKVLA
V domain 2: B7 V domain 2 with L95F, W96G, L98W, N99G, T100Y, E101G, A102Y, F103T, Q106S
notes: stained with anti-mouse TCR constant region H57-597; full-length chains on transfected CHO cells; also called TCR No. 23
B10: PN41822 (TCR, V domains shown)
V domain 1: B7 V domain 1
V domain 2: B7 V domain 2 with G97A
notes: stained with anti-mouse TCR constant region H57-597; full-length chains on transfected CHO cells; also called TCR No. 32
B11: PN41868 (TCR, V domains shown)
V domain 1: B7 V domain 1
V domain 2: B7 V domain 2 with L98T, N99H, T100E, E101K, A102L, Q106S, R109Q, T111S, V113L
notes: stained with anti-mouse TCR constant region H57-597; full-length chains on transfected CHO cells; also called TCR No. 37
B12: PN41559 (TCR, V domains shown)
V domain 1: B7 V domain 1
V domain 2: B7 V domain 2 with L98W, N99G
notes: stained with anti-mouse TCR constant region H57-597; full-length chains on transfected CHO cells; also called TCR No. 12
B13: PN41869 (TCR, V domains shown)
V domain 1: B7 V domain 1 with A97S
V domain 2: B7 V domain 2 with L98T, T100E, E101K, A102L, Q106S, R109Q, T111S, V113L
notes: stained with anti-mouse TCR constant region H57-597; full-length chains on transfected CHO cells; also called TCR No. 38
B14: PN41577 (TCR, V domains shown)
V domain 1: B7 V domain 1 with T98P
V domain 2: B7 V domain 2 with L98T, T100E, E101K, A102L, Q106S, R109Q, T111S, V113L
notes: stained with anti-mouse TCR constant region H57-597; full-length chains on transfected CHO cells; also called TCR No. 16
B15: PN41690 (TCR, V domains shown)
V domain 1: B7 V domain 1 with T98I
V domain 2: B7 V domain 2 with L98V
notes: stained with anti-mouse TCR constant region H57-597; full-length chains on transfected CHO cells; also called TCR No. 24
B16: PN41702 (TCR, V domains shown)
V domain 1: B7 V domain 1
V domain 2: B7 V domain 2 with G97A, L98V, T100E, E101K, A102L, Q106S, R109Q, T111S, V113L
notes: stained with anti-mouse TCR constant region H57-597; full-length chains on transfected CHO cells; also called TCR No. 25
B17: PN41608 (TCR, V domains shown)
V domain 1: B7 V domain 1 with T98P
V domain 2: B7 V domain 2 with L95F, L98W
notes: stained with anti-mouse TCR constant region H57-597; full-length chains on transfected CHO cells; also called TCR No. 18
B18: PN41568 (TCR, V domains shown)
V domain 1: B7 V domain 1 with T98R
V domain 2: B7 V domain 2 with L98T, T100E, E101K, A102L, Q106S, R109Q, T111S, V113L
notes: stained with anti-mouse TCR constant region H57-597; full-length chains on transfected CHO cells; also called TCR No. 14
B19: PN41494 (TCR, V domains shown)
V domain 1: B7 V domain 1
V domain 2: B7 V domain 2 with L98W, T100S, E101P, A102L, F103H, Q106N, V113T
notes: stained with anti-mouse TCR constant region H57-597; full-length chains on transfected CHO cells; also called TCR No. 2
B20: PN41617 (TCR, V domains shown)
V domain 1: B7 V domain 1 with T98S
V domain 2: B7 V domain 2 with L98M
notes: stained with anti-mouse TCR constant region H57-597; full-length chains on transfected CHO cells; also called TCR No. 20
B21: PN41475 (TCR, V domains shown)
V domain 1: B7 V domain 1 with E61V
V domain 2: B7 V domain 2 with L98S
notes: stained with anti-mouse TCR constant region H57-597; full-length chains on transfected CHO cells; also called TCR No. 1
B22: PN41520 (TCR, V domains shown)
V domain 1: B7 V domain 1 with T98R
V domain 2: B7 V domain 2 with L98V, T100S, E101P, A102L, F103H, Q106N, V113T
notes: stained with anti-mouse TCR constant region H57-597; full-length chains on transfected CHO cells; also called TCR No. 6
B23: PN41532 (TCR, V domains shown)
V domain 1: B7 V domain 1 with T98E
V domain 2: B7 V domain 2
notes: stained with anti-mouse TCR constant region H57-597; full-length chains on transfected CHO cells; also called TCR No. 8
B24: PN41607 (TCR, V domains shown)
V domain 1: B7 V domain 1 with T98S
V domain 2: B7 V domain 2 with L98T, T100E, E101K, A102L, Q106S, R109Q, T111S, V113L
notes: stained with anti-mouse TCR constant region H57-597; full-length chains on transfected CHO cells; also called TCR No. 17
B25: PN41852 (TCR, V domains shown)
V domain 1: B7 V domain 1 with T98L, Q101D, F102M, Y103R, T106A, S109R, I113K
V domain 2: B7 V domain 2 with G97A
notes: stained with anti-mouse TCR constant region H57-597; full-length chains on transfected CHO cells; also called TCR No. 35
B26: PN41565 (TCR, V domains shown)
V domain 1: B7 V domain 1 with A97P
V domain 2: B7 V domain 2 with G97A, L98M
notes: stained with anti-mouse TCR constant region H57-597; full-length chains on transfected CHO cells; also called TCR No. 13
B27: PN41518 (TCR, V domains shown)
V domain 1: B7 V domain 1 with T98P
V domain 2: B7 V domain 2 with G97A, L98T, T100E, E101K, A102L, Q106S, R109Q, T111S, V113L
notes: stained with anti-mouse TCR constant region H57-597; full-length chains on transfected CHO cells; also called TCR No. 5
B28: PN41513 (TCR, V domains shown)
V domain 1: B7 V domain 1 with T98P
V domain 2: B7 V domain 2 with W96F, G97A, L98T, T100E, E101K, A102L, Q106S, R109Q, T111S, V113L
notes: stained with anti-mouse TCR constant region H57-597; full-length chains on transfected CHO cells; also called TCR No. 3
B29: PN41523 (TCR, V domains shown)
V domain 1: B7 V domain 1 with T98P
V domain 2: B7 V domain 2
notes: stained with anti-mouse TCR constant region H57-597; full-length chains on transfected CHO cells; also called TCR No. 7
B30: PN41573 (TCR, V domains shown)
V domain 1: B7 V domain 1
V domain 2: B7 V domain 2 with L98T, T100E, E101K, A102L, Q106S, R109Q, T111S, V113L
notes: stained with anti-mouse TCR constant region H57-597; full-length chains on transfected CHO cells; also called TCR No. 15
B31: PN41829 (TCR, V domains shown)
V domain 1: B7 V domain 1
V domain 2: B7 V domain 2 with W96F, G97A
notes: stained with anti-mouse TCR constant region H57-597; full-length chains on transfected CHO cells; also called TCR No. 33

Molecular target: T1, soluble HLA-A2 (…) tetramer (human)
T1 construct: Bought tetramer reagent; also called MAGE-A4/HLA tetramer reagent; HLA-A02:01 MAGE-A4 tetramer
Test: flow cytometry, HLA-A2 (…) tetramer staining of CHO cells transfected with the TCR
Procedure: Samples were then analyzed on an LSRFortessa X-20 (BD Biosciences, San Jose, Calif.).

Binder | % in Ag+ gate >250 MFI, >1%
B1 | 20.7%
B2 | 9.56%
B3 | 42.5%
B4 | 30.4%
B5 | 36.2%
B6 | 73%
B7 | 90.2%
B8 | 8.32%
B9 | 13.8%
B10 | 63.5%
B11 | 67.1%
B12 | 74.3%
B13 | 76.5%
B14 | 80%
B15 | 75.3%
B16 | 8.13%

Binder | % in Ag+ gate >250 MFI, >1%
B17 | 77%
B18 | 82.9%
B19 | 9.24%
B20 | 90.6%
B21 | 65.5%
B22 | 16.9%
B23 | 85.4%
B24 | 81%
B25 | 18%
B26 | 4.02%
B27 | 34.9%
B28 | 29.6%
B29 | 90.5%
B30 | 85.7%
B31 | 19.5%

Molecular target: T2, MAGE-A4 peptide on HLA-A*02:01 (human)
T2 peptide: KVLEHVVRV
Test: multimer staining

Binder | binding result
B1 | recognises
B2 | recognises
B3 | recognises
B4 | recognises
B5 | recognises
B6 | recognises
B7 | recognises
B8 | recognises
B9 | recognises
B10 | recognises
B11 | recognises
B12 | recognises
B13 | recognises
B14 | recognises
B15 | recognises
B16 | recognises

Binder | binding result
B17 | recognises
B18 | recognises
B19 | recognises
B20 | recognises
B21 | recognises
B22 | recognises
B23 | recognises
B24 | recognises
B25 | recognises
B26 | recognises
B27 | recognises
B28 | recognises
B29 | recognises
B30 | recognises
B31 | recognises
